Assay in all cases: EC50 of free RNA motif oligo competing protein binding to immobilised probe
One series has as its target T1, SRSF11 (UniProt Q05519).
T1 sequence: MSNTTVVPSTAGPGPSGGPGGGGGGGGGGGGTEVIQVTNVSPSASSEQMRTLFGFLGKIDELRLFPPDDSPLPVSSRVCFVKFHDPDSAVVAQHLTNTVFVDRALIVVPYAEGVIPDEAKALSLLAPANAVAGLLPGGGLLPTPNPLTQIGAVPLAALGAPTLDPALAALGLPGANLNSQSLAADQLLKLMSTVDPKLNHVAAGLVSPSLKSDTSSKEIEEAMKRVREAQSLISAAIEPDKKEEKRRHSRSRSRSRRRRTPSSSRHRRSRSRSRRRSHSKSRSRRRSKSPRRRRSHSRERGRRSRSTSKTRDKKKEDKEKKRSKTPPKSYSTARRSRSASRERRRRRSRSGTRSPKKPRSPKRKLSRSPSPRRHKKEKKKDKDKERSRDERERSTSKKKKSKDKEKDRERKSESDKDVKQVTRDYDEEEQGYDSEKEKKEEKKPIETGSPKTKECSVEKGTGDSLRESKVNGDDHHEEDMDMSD
The method, boiled down:
(§1)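 Free RNA oligos (0 nM to 30 μM) competed for 1 h at 4°C in HEK293-FT lysate (2.5 mg protein/well) before a 30 min, 4°C pulldown with the same oligos on NHS-Sepharose beads. Bound proteins were quantified by label-free LC-MS/MS and normalised to the control. Kd was found by multiplying EC50, from a four-parameter log-logistic fit, by a protein-dependent depletion factor.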

The target in another series is P4HB (UniProt P07237). The method, boiled down:
as §1

For a further series, the target named is T2, PINX1 (UniProt Q96BK5).
T2 sequence: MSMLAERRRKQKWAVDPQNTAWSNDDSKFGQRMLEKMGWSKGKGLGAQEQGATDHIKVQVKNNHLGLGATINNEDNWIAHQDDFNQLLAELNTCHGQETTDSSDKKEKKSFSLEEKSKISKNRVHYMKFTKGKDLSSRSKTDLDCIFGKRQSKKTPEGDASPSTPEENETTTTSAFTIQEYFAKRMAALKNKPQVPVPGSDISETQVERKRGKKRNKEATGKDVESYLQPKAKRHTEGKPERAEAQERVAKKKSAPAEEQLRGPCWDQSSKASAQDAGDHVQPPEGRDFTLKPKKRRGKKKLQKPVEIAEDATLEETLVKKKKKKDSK
The method, boiled down:
as §1

A further series concerns the target T3, SRSF4 (UniProt Q08170).
T3 sequence: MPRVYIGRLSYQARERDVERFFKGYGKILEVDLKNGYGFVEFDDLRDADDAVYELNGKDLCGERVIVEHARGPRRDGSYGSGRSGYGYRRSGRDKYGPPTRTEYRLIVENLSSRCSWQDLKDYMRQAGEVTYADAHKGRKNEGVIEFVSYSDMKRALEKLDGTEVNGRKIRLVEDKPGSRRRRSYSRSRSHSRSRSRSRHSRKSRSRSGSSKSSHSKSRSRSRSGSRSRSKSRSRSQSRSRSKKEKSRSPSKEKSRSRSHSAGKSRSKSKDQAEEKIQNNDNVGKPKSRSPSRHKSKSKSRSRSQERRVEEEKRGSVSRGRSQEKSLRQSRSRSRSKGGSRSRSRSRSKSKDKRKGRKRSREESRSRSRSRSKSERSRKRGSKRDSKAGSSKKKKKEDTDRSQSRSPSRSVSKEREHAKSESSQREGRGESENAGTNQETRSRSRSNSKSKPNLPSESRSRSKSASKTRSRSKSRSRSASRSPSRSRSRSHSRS
Put shortly: as §1

For a further series, the target named is T4, MYEF2 (UniProt Q9P2K5).
T4 sequence: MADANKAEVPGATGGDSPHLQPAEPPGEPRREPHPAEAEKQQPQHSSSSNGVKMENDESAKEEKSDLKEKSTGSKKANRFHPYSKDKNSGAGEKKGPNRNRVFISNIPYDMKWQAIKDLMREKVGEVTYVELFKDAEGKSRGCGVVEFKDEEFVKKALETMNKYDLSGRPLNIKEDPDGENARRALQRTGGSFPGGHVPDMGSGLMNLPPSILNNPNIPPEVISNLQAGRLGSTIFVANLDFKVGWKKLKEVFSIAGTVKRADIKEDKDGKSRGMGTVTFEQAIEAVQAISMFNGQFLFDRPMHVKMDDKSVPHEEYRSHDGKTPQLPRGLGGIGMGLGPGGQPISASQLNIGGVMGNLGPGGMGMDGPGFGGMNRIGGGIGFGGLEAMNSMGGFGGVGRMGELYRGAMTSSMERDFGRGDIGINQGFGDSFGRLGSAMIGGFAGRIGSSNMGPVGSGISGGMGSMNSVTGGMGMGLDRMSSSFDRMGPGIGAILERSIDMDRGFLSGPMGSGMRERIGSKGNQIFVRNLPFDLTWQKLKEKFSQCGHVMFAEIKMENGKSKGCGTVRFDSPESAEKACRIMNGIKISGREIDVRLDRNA
Put shortly:
as §1

The next series addresses T5, CWF19L1 (UniProt Q69YN2).
T5 sequence: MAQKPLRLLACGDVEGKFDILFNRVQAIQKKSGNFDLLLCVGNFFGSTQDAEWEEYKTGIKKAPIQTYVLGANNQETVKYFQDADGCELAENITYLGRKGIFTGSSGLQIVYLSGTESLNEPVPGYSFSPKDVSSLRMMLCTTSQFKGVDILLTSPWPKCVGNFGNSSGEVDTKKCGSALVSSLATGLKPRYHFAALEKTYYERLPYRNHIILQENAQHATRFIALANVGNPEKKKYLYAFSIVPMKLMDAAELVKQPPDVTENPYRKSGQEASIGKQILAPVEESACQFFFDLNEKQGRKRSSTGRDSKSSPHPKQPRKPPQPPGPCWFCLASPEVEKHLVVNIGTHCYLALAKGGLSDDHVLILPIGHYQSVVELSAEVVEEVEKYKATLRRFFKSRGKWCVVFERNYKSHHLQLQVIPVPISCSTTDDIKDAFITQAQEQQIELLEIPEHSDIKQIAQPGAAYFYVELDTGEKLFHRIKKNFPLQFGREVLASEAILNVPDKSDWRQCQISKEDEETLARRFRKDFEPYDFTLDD
The method, boiled down: as §1

P4HB, sequence (P07237 whole entry, looked up): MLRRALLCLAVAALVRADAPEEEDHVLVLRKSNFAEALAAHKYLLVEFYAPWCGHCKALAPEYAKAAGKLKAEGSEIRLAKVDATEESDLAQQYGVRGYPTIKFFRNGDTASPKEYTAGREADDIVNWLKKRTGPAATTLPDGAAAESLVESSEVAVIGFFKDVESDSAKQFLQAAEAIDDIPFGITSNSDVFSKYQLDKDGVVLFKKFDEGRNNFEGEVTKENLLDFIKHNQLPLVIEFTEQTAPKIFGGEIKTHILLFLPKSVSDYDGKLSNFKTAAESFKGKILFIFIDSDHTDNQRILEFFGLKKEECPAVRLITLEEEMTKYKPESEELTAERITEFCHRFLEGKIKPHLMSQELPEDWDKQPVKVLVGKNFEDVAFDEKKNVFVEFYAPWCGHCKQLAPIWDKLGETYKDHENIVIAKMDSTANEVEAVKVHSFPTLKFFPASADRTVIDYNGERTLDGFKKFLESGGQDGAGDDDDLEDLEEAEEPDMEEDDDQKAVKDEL

In the case of AAUAAA, the EC50 (usually the midpoint of the concentration-response curve) stood at 1110 nM in the series with SRSF11, 40.4 nM in the series with P4HB and 2130 nM with PINX1.

Regarding CUGUCCU, in the series with SRSF4, the 50% effective concentration (EC50) is 978 nM.

On to UAUUUAU, for which the values for the EC50 with MYEF2 and in the series with CWF19L1 were 3800 nM and 3160 nM, respectively.
